Experiment [1] has as its target recombinant rat beta-NGF (R&D Systems) (rat) (UniProt P25427). The experiment is described as follows: cell-based or functional assay.
Experiment [2] concerns the target recombinant human NGF 1-120 (human) (UniProt P01138). The experiment in a line: cell-based or functional assay.

Sequence of recombinant human NGF 1-120 (human) (P01138 other isoform, or with tags, fused parts or gaps): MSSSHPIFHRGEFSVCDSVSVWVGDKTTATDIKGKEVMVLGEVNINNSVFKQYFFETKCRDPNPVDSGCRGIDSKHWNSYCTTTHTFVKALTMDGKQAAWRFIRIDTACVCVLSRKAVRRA
Sequence of recombinant rat beta-NGF (R&D Systems) (rat) (P25427 122-241 limits assumed): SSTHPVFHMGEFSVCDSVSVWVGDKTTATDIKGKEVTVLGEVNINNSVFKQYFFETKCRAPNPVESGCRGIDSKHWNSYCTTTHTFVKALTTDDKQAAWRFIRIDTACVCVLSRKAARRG

B1: anti-NGF antibody 14D10 (antibody, V domains shown)
VH: EVQLVESGGGLVQPGRSLRLSCTASGFTFEDYAMHWVRQAPGKGLEWVSGISWNRGIIGYADSVKGRFTVSRDNAKNSLYLQMNSLRAEDTALYYCAKEGYYGSGRPGYFYYVMDVWGQGTTVTVSS
VL: EIVLTQSPGTLSLSPGERATLSCRASQSVSSGFLAWFQQKPGQAPRLLIYGASSRATAIPDRFSGSGSGTDFTLTISRLEPEDFAVYYCQQYGSSPYTFGQGTKLEIK
For B1, the IC50 @ rNGF, NGF neutralization activity as in Example 3 in experiment [1] is over 13 nM. Further, the IC50 @ hNGF, NGF neutralization activity as in Example 3 in experiment [2] was 0.392 nM.

B2: anti-NGF antibody 14D11 (antibody, V domains shown)
VH: EVQLVQSGAEVKKPGESLKISCKGSGYNFTTYWIGWVRQMPGKGLEWMGIIYPGDSDTKYSPSFQGQVTISADKSISTAYLQWSSLKASDTAMYYCARNYYGSGTYYYYYGMNVWGQGTTVTVSS
VL: DIQMTQSPSSVSASVGDRVTITCRASQGISIWLAWYQHKPGKAPKLLIYAASSLQSGVPSRFSGSGSGTDFTLTISSLQPEDFATYYCQQANSFPWTFGQGTKVEIK
Consider B2, for which, in experiment [1], the IC50 @ rNGF, NGF neutralization activity as in Example 3 is over 20 nM. Moreover, in experiment [2], the IC50 @ hNGF, NGF neutralization activity as in Example 3 was 0.28 nM.

The record behind these values is US20160237147A1.
